Laboratory results taken from PMC5566378, “The human IL-17A/F heterodimer: a two-faced cytokine with unique receptor recognition properties” (Scientific Reports, 2017).
Residue numbers refer to the chain shown, from its start. Names may count otherwise. Values belong to the binder of their own block, whether it stands above or below them.

Experiments:
Details in all cases: both partners purified
[1] = molecular target: T1, human IL-17RC extracellular domain (human, UniProt Q8NAC3-2 21-467); assay: SPR; Biacore 8K; IL-17RC ECD immobilised (about 500 RU) by amine coupling on a CM4 chip; cytokines as analytes in PBS pH 7.4, 3 mM EDTA, 0.05% Tween20; 20 °C, 30 µl/min; 1:1 Langmuir model, steady-state analysis for variants of weaker affinity; mean of at least five independent experiments
T1 construct: human IL-17RC full-length extracellular domain, residues 21-467 of UniProt entry Q8NAC3-2, secreted with the CD33 signal peptide; numbers count on: isoform Q8NAC3-2; also called IL-17RC ECD; source: GnTI-deficient HEK293S, transient expression, purified (anti-APP antibody column, Resource-Q, Superdex-200 SEC)
T1 sequence (looked up): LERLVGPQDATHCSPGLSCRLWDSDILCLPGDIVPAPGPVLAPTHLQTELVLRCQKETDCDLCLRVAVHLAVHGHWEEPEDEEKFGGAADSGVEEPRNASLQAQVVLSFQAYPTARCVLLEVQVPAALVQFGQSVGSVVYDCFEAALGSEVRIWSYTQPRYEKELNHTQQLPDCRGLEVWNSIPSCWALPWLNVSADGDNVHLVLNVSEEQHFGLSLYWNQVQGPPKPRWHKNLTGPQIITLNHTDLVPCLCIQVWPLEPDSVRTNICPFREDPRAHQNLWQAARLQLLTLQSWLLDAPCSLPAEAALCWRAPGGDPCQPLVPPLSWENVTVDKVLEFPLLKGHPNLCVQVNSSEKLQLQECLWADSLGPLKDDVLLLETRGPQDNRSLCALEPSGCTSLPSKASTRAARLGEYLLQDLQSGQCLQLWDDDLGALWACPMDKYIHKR

[2] = molecular target: T2, human IL-17RC extracellular domain (human, UniProt Q8NAC3-2 21-467); assay: SPR; Biacore 8K; IL-17RC ECD amine-coupled on a CM4 chip (about 500 RU); cytokines as analytes in PBS pH 7.4, 3 mM EDTA, 0.05% Tween20; 20 °C, 30 µl/min; 1:1 Langmuir model or steady-state analysis
T2 construct: human IL-17RC, full-length extracellular domain, residues 21-467 of UniProt Q8NAC3-2, cloned behind the CD33 signal peptide; numbers count on: isoform Q8NAC3-2; also called IL-17RC ECD; IL-17RC receptor
T2 sequence (looked up): T1 sequence (looked up)

[3] = molecular target: T3, human IL-17RA extracellular domain (human, UniProt Q96F46 33-320, biotin on the Avi-tag (E. coli BirA), for the SPR measurements only); assay: SPR; Biacore 8K; biotinylated IL-17RA ECD immobilised on a streptavidin chip (about 500 RU); cytokines as analytes in PBS pH 7.4, 3 mM EDTA, 0.05% Tween20; 20 °C, 30 µl/min; 1:1 Langmuir model or steady-state analysis
T3 construct: human IL-17RA, full-length extracellular domain, residues 33-320 of UniProt Q96F46, cloned behind the CD33 signal peptide; The same construct was used unbiotinylated for the complex and its crystals (treated with PNGaseF and Endoglycosidase H) and biotinylated for SPR; also called IL-17RA ECD; IL-17RA receptor; source: GnTI-deficient HEK293S, transient expression, secreted, purified (anti-APP …)

[4] = molecular target: T4, human IL-17RA extracellular domain (human, UniProt Q96F46 33-320, biotin on the Avi-tag (BirA) for SPR measurements); assay: SPR; Biacore 8K; biotinylated IL-17RA ECD immobilised (about 500 RU) on a streptavidin SA chip; cytokines as analytes in PBS pH 7.4, 3 mM EDTA, 0.05% Tween20; 20 °C, 30 µl/min; 1:1 Langmuir model, steady-state analysis for variants of weaker affinity; mean of at least five independent experiments
T4 construct: human IL-17RA full-length extracellular domain, residues 33-320 of UniProt Q96F46, secreted with the CD33 signal peptide; The construct is described 'for crystallization'; the SPR sample is the same ECD biotinylated on its Avi-tag; In the crystal the complex was treated with PNGaseF and Endoglycosidase H and biotinylation is not mentioned; also called IL-17RA ECD; source: GnTI-deficient HEK293S, …

- Kd [1]: 4 nM
B1: human IL-17F homodimer, wild type (ligand, UniProt Q96PD4 31-163, looked up)
chain: RKIPKVGHTFFQKPESCPPVPGGSMKLDIGIINENQRVSMSRNIESRSTSPWNYTVTWDPNRYPSEVVQAQCRNLGCINAQGKEDISMNSVPIQQETLVVRRKHQGCSVSFQLEKVLVTVGCTCVTPVIHHVQ
notes: human IL-17F, residues 31-163 of UniProt Q96PD4, secreted with the CD33 signal peptide (P20138-1); also called IL-17F wt

- fold reduction in binding affinity against wild-type IL-17F [2]: ≥ 200 fold
- fold reduction in affinity against wild-type IL-17F [3]: > 5 fold
B2: human IL-17F homodimer, Arg77 to alanine mutant (ligand, UniProt Q96PD4 31-163, looked up)
chain: B1 chain with R47A
notes: human IL-17F, residues 31-163 of UniProt Q96PD4, cloned behind the CD33 signal peptide and the APP6-tag, R77A; also called IL-17F R77A; point mutant of the IL-17F homodimer; source: HEK293S, transient expression, secreted, purified

- Kd [1]: 905 nM
- Kd [4]: 726 nM
B3: human IL-17F homodimer, R77A (ligand, UniProt Q96PD4 31-163, looked up)
chain: B1 chain with R47A
notes: human IL-17F, residues 31-163 of UniProt Q96PD4, secreted with the CD33 signal peptide, Arg77 to alanine; also called IL-17F R77A; source: HEK293S, transient expression, purified (as the wild type)
